Key:
[1] = test system: ARPE-19 cells; assay: ARPE-19 GAG-dependent cholesterol import (with or without heparin); type: cell-based, human; conditions: ARPE-19, 10 μM peptide
Protocol: ARPE-19 cells were seeded on 96-well plates at 25,000 cells per well and grown to confluence. A 2× solution of 500 μM DMPC and 50 μM BODIPY-Cholesterol with or without 100 µg/mL heparin was prepared in serum free DMEM: F12. Peptides were diluted to 20 μM in serum free DMEM: F12 (a 2× solution). Peptides were added to lipid solution in equal parts (60 μL each) and incubated for 1 hour at 37° C. ARPE-19 cells were serum starved in serum free DMEM: F12 for 1 hour at 37° C. Peptide: Lipid complexes (100 μL total volume per well) were transferred to ARPE-19 cells for 2 hours at 37° C. Cells were washed, fixed, and intracellular fluorescence was read on Promega GloMax at 475 nm excitation, 500-550 emission. Fluorescence values were background corrected from no treatment conditions. Data are presented ±SD for 2 runs.

[2] = peptide binding to non-oxidized and oxidized lipids (SPR); conditions: immobilized peptide; RU normalized to DMPC
Protocol: FIGS. 25A-25O show peptide binding activity to non-oxidized and oxidized lipids via SPR for indicated peptides. Peptides were reconstituted to 50 μg/mL in 10 mM acetate buffer, pH 4.5 and immobilized to ˜200 RU on a CM5 chip via amine coupling. Non-oxidized lipids (DMPC & POPC) and oxidized lipids (POVPC & KOdiA-PC) were diluted to 100 µM in HBS-EP running buffer and exposed to the chip for binding (n=3) at a flow rate of […] for 120 seconds. The surface was regenerated with 20% EtOH. T-001 served as a positive control and T-031 served as a negative control on each chip. For each peptide, the RU response for all lipids was normalized to the DMPC RU values.

[3] = target: LDLR (Homo sapiens, UniProt P01130); assay: lipid-dependent LDLR binding (SPR), single concentration; conditions: 1 μM peptide with or without 25 μM DMPC
Protocol: Peptides were diluted in 1×HBS-N buffer with 1 mM CaCl2 to a final concentration of 1 μM and incubated with or without 25 μM DMPC for 1 hour at RT to form lipid complexes. Each peptide was tested in duplicate. LDLR was diluted to 10 μg/mL in 10 mM acetate buffer pH 4.5 and was immobilized (˜400RU) on a CM5 chip via amine coupling utilizing 1×HBS-P+ buffer with 1 mM CaCl2. Test peptides (with or without DMPC) were exposed to immobilized LDLR at a flow rate of […] for 120 seconds in HBS-N with 1 mM CaCl2. Between cycles the surface was regenerated with 3, 30 second injections of 10 mM NaOH and 100 mM EDTA. Data are plotted as max RU values, averaged from three separate runs.

[4] = DMPC solubility assay, 0.5 mM DMPC (turbidity reduction); type: biochemical; conditions: FIGS. 2A-2D and 3A-3C
Protocol: In this example, peptide stocks were diluted to 200 μM in H2O (a 2× solution) and 50 μL of peptide solution was transferred in triplicate into 96-well plates. A one mM solution of 1,2-dimyristoyl-sn-glycero-3-phosphocholine (DMPC) in H2O was prepared, and using a multichannel pipet, 50 μL DMPC solution was rapidly added to the plate. Peptide and lipid solutions were incubated at room temperature for 15 minutes with a final concentration of 100 μM peptides and 0.5 mM DMPC. After 15 minutes, absorbance was read on a plate reader at 405 nm. […] Data are presented as mean+SD over two runs.
In these experiments, DMPC solubility titration curves were generated. Peptide stocks were diluted to 200 μM in H2O (a 2× solution) and serially diluted in H2O over 4 concentrations, then 50 μL of peptide solutions were distributed in triplicate into 96-well plates. A 1 mM solution of 1,2-dimyristoyl-sn-glycero-3-phosphocholine (DMPC) in H2O was prepared, and using a multichannel pipet, 50 μL DMPC solution was rapidly added to the plate. Peptide and lipid solutions were incubated at room temperature for 15 minutes with final concentrations of 3.16-100 μM peptides and 0.5 mM DMPC. After 15 minutes, absorbance was read on a plate reader at 405 nm. […] Data are presented as mean+SD over two runs. Non-linear regression was used to calculate EC50 values.

Chain of LDLR (P01130 22-860): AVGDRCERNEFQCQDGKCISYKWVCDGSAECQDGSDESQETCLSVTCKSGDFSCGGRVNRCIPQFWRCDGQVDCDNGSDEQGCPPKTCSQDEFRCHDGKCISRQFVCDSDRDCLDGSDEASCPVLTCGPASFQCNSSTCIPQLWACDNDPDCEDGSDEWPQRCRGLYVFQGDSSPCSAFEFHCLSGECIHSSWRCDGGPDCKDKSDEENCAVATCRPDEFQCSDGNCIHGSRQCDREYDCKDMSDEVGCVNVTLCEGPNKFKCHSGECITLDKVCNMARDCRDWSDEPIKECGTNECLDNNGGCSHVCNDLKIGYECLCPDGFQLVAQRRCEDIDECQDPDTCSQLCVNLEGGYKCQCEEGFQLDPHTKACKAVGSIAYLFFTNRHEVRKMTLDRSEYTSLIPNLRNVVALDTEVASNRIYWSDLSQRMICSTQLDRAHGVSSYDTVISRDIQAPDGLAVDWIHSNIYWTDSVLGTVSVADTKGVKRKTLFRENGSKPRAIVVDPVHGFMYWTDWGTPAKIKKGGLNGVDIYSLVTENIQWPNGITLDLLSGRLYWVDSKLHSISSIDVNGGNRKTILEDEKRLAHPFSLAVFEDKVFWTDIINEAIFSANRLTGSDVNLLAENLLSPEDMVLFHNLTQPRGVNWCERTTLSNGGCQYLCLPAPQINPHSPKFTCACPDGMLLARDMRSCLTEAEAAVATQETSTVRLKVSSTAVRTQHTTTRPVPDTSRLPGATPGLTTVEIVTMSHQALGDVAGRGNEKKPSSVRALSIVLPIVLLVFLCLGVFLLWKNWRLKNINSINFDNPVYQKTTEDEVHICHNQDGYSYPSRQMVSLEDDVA

B1: T-013: therapeutic peptide (peptide)
chain: TRARLSKELQAAQARLGADMEDVRGRLVQYRGEVQAMLGQSTEELRVRLASHLRKLRKRLLRDADDLQKRLAVYQA
GAG dependence of cholesterol import [1]: rely on GAG binding for cholesterol import activity | binding to oxidized lipids relative to DMPC [2]: binding to at least one oxidized lipid that was equivalent or improved to binding against DMPC | lipid-dependent LDLR binding (RU with lipid vs peptide alone) [3]: lipid-dependent LDLR binding activity | DMPC solubilizing activity [4]: significant activity

From patent US20260115250A1, “METHODS OF TREATING AGE-RELATED MACULAR DEGENERATION” (Character Biosciences, Inc., priority 2022, published 2026)
